In PMC4835703, “Cellular uptake of exogenous calcineurin B is dependent on TLR4/MD2/CD14 complexes, and CnB is an endogenous ligand of TLR4” (Scientific Reports, 2016):

Molecular target: T1, recombinant calcineurin B (UniProt P63098 1-170)
T1 construct: calcineurin B (CnB), regulatory subunit of calcineurin; recombinant protein (rhCnB); also called CnB; rhCnB; source: provided by Haikou Qili Pharmaceutical Co., Ltd
Assay: MST; purified TLR4 ectodomain or soluble CD14 labelled with DyLight 488, 20 nM in MST buffer; CnB titrated in 16 1:1 dilutions; 10 min incubation; Monolith NT.115, 25 °C, 50% LED power, 20% MST power
Conditions: both partners purified

Kd: 1010 nM
B1: soluble CD14 (receptor)
chain: TTPEPCELDDEDFRCVCNFSEPQPDWSEAFQCVSAVEVEIHAGGLNLEPFLKRVDADADPRQYADTVKALRVRRLTVGAAQVPAQLLVGALRVLAYSRLKELTLEDLKITGTMPPLPLEATGLALSSLRLRNVSWATGRSWLAELQQWLKPGLKVLSIAQAHSPAFSCEQVRAFPALTSLDLSDNPGLGERGLMAALCPHKFPAIQNLALRNTGMETPTGVCAALAAAGVQPHSLDLSHNSLRATVNPSAPRCMWSSALNSLNLSFAGLEQVPKGLPAKLRVLDLSCNRLNRAPQPDELPEVDNLTLDGNPFLVPGTALPHEGSMN
modifications: labelled with DyLight 488 in the MST experiment and where it was the soluble partner in the ELISA; unlabelled where coated on the plate and in the co-IP
notes: CD14, soluble recombinant form; also called sCD14; purified soluble CD14; source: bought: Sino Biological, Inc
